# Data from patent US20140065154A1, “TLR3 BINDING AGENTS” (INNATE PHARMA, priority 2011, published 2014).
# “Also recorded” adds a separate entry of the source.
# Assays:
# [1] = biological target: T1, recombinant human TLR3 extracellular domain (R&D Systems) (human, UniProt O15455 27-711); experiment: SPR (Biacore T100), rhTLR3 immobilised on CM5 chip, bivalent affinity, pH 7.2, mean of 2 or 3 experiments
# T1 construct: also called rhTLR3; human rec TLR3; not shown: His tag (R&D #1487-TR)
# [2] = biological target: T1, recombinant human TLR3 extracellular …; experiment: SPR (Biacore T100), rhTLR3 immobilised on CM5 chip, bivalent affinity, pH 5.6, mean of 2 or 3 experiments
# Procedure: (a) General Biacore T100 methods. SPR measurements were performed on a Biacore T100 apparatus (Biacore GE Healthcare) at 25° C. In all Biacore experiments HBS-EP+ buffer (Biacore GE Healthcare) or 10 mM sodium acetate pH 5.6, 150 mM NaCl, 0.05% P20 served as running buffer and sensorgrams were analyzed with Biaevaluation 4.1 and Biacore T100 Evaluation software. Recombinant human and mouse TLR3 were purchased from R&D Systems. (b) Protein immobilization. Recombinant TLR3 protein was immobilized covalently to carboxyl groups in the dextran layer of a Biacore Series 5 Sensor Chip CM5 (chip). The chip surface was activated with EDC/NHS (0.2M N-ethyl-N′-(3-dimethylaminopropyl) carbodiimidehydrochloride, 0.05M N-hydroxysuccinimide (Biacore GE Healthcare)). […] Deactivation of the remaining activated groups was performed using 100 mM ethanolamine pH 8 (Biacore GE Healthcare). (c) Antibody binding analysis was run using HBS-EP+ (neutral pH). Antibodies at a concentration of 10 μg/ml were injected for 2 min at a constant flow rate of 10 μl/min over the immobilized proteins and allowed to dissociate for 3 min before regeneration by a ten second injection of 10 mM NaOH, 500 mM NaCl regeneration buffer. Blank correction was performed on line by co-injecting the soluble antibodies onto the reference dextran flow cell. (d) Competition assay in acidic buffer (pH 5.6). […]
# [3] = biological target: T2, TLR3 (Homo sapiens, UniProt O15455); experiment: Myeloid DC (MdDC) secretion and expression inhibition test; type: cell-based; design: Myeloid DC (MdDC) were obtained from PBMC by isolating PBMC from normal healthy human donors; endogenous in cells; host or cells: human monocyte-derived DC (CD14+ monocytes cultured with GM-CSF and IL-4); details: polyAU
# Procedure: Myeloid DC (MdDC) were obtained from PBMC by isolating PBMC from normal healthy human donors. Monocytes were purified from PBMC using positive selection with human CD14 microbeads (Miltenyi Biotech) following general instructions. Monocytes were further derived into DC (MdDC) by 5-6 days incubation in human GM-CSF (Leucomax, SP) and human IL-4 (R&D Systems) at respectively 200 ng/ml and 20 ng/ml.
# The resulting MdDC were then seeded at 10^6 cells/ml, in duplicate, in flat bottom 96-well plates. Cells were activated for 20 hours in a final volume of 200 μl, together with the anti-TLR3 antibodies at the indicated concentrations. Increasing amounts of polyAU were added to the wells to obtain a dose effect read-out at the dose and timepoint as indicated.
# Supernatants were collected after 20 h of stimulation, frozen at −20° C., and further assayed for IL-6 and IP-10 using Enzyme-linked immunosorbent assay. Cells were then harvested, stained for activation markers CD86 (with a.huCD86 mouse, IgG1, FITC, BD Biosciences, ref 555657), with detection using FACSCanto™ flow cytometer (BD Biosciences).
# Myeloid DC (MdDC) secretion inhibition test is performed according to the section titled Materials and Methods.
# [4] = biological target: T2, TLR3; experiment: SPR (Biacore) bivalent affinity on immobilized TLR3; type: binding; design: purchased R&D Systems; details: neutral pH; own vs commercially available antibodies
# Procedure: (a) General Biacore T100 methods. SPR measurements were performed on a Biacore T100 apparatus (Biacore GE Healthcare) at 25° C. In all Biacore experiments HBS-EP+ buffer (Biacore GE Healthcare) or 10 mM sodium acetate pH 5.6, 150 mM NaCl, 0.05% P20 served as running buffer and sensorgrams were analyzed with Biaevaluation 4.1 and Biacore T100 Evaluation software. Recombinant human and mouse TLR3 were purchased from R&D Systems. (b) Protein immobilization. Recombinant TLR3 protein was immobilized covalently to carboxyl groups in the dextran layer of a Biacore Series 5 Sensor Chip CM5 (chip). The chip surface was activated with EDC/NHS (0.2M N-ethyl-N′-(3-dimethylaminopropyl) carbodiimidehydrochloride, 0.05M N-hydroxysuccinimide (Biacore GE Healthcare)). […] Deactivation of the remaining activated groups was performed using 100 mM ethanolamine pH 8 (Biacore GE Healthcare). (c) Antibody binding analysis was run using HBS-EP+ (neutral pH). Antibodies at a concentration of 10 μg/ml were injected for 2 min at a constant flow rate of 10 μl/min over the immobilized proteins and allowed to dissociate for 3 min before regeneration by a ten second injection of 10 mM NaOH, 500 mM NaCl regeneration buffer. […]
# Binding to TLR3 was determined at neutral (pH 7.2) and acid (pH 5.6) conditions, and KD values were calculated. […]
# [5] = biological target: T2, TLR3; experiment: SPR competition assay with polyAU in acidic buffer; type: binding; design: purchased R&D Systems; details: pH 5.6
# Procedure: (a) General Biacore T100 methods. SPR measurements were performed on a Biacore T100 apparatus (Biacore GE Healthcare) at 25° C. In all Biacore experiments HBS-EP+ buffer (Biacore GE Healthcare) or 10 mM sodium acetate pH 5.6, 150 mM NaCl, 0.05% P20 served as running buffer and sensorgrams were analyzed with Biaevaluation 4.1 and Biacore T100 Evaluation software. Recombinant human and mouse TLR3 were purchased from R&D Systems. (b) Protein immobilization. Recombinant TLR3 protein was immobilized covalently to carboxyl groups in the dextran layer of a Biacore Series 5 Sensor Chip CM5 (chip). The chip surface was activated with EDC/NHS (0.2M N-ethyl-N′-(3-dimethylaminopropyl) carbodiimidehydrochloride, 0.05M N-hydroxysuccinimide (Biacore GE Healthcare)). […] Deactivation of the remaining activated groups was performed using 100 mM ethanolamine pH 8 (Biacore GE Healthcare). (c) Antibody binding analysis was run using HBS-EP+ (neutral pH). Antibodies at a concentration of 10 μg/ml were injected for 2 min at a constant flow rate of 10 μl/min over the immobilized proteins and allowed to dissociate for 3 min before regeneration by a ten second injection of 10 mM NaOH, 500 mM NaCl regeneration buffer. Blank correction was performed on line by co-injecting the soluble antibodies onto the reference dextran flow cell. (d) Competition assay in acidic buffer (pH 5.6). Flow rate was set to 10 μl/min, the first antibody at a concentration of 50 μg/ml (or polyAU at 100 μg/ml) was injected for 2 min, 3 times successively in order to saturate the rhTLR3 surface. The second antibody (or polyAU at 100 μg/ml when the polyAU was added after first antibody) was then injected for 2 min also at 50 μg/ml and allowed to dissociate for 3 min before regeneration by a 15 second injection of 10 mM NaOH, 500 mM NaCl regeneration buffer. Blank correction was also performed on line and the curve using the saturating antibody (or neucleic acid) followed by an injection of buffer subtracted to remove the signal due to the dissociation of the first complex. The resulting signal was compared to that obtained by the injection of the second antibody directly onto the rhTLR3 surface.
# Competition assays were conducted according to the methods described for SPR, item d) at pH 5.6.
# Buffer (followed by polyAU) is represented in the lower line, while 31C3 followed by polyAU is in the upper line.
# [6] = biological target: T2, TLR3; experiment: 293T-TLR3-ISRE luciferase reporter gene assay; type: cell-based; design: host or cells: 293T (ATCC #CRL-1573), stably carrying pISRE-luc; details: dsRNA TLR3 agonist
# Source text: A reporter gene assay using as promoter ISRE (IFN-stimulated response element) and as reporter gene and protein luciferase was set up. A 293T cell line (ATCC, #CRL-1573) was stably transfected with pISRE-luc plasmid (#219089—Stratagene), further selected by cloning as inducing optimal response to IFN-alpha stimulation and referred to as control 293T-ISRE. This cell line was further stably transfected with pUNO-humanTLR3 plasmid (#puno-htlr3—InVivogen) or pUNO-mouseTLR3 plasmid (#puno-mtlr3—InVivogen) and referred to as 293T-TLR3-ISRE and 293T-mTLR3-ISRE respectively. On day 0, cells are seeded at 4×10^5 cells/mL in complete culture medium in 96-well culture plate (100 μl/well). Cells are first incubated at 37° C. for 20 hours, then 50 μL of medium are discarded and cells are activated with 100 μL/well final of increasing amounts of polyAU together with various concentrations of anti-TLR3 antibodies. Cells incubated with fresh medium will be used as background luciferase activity. Cells are incubated at 37° C. for 6 hours. 100 μL of freshly thawed Steady Glo (Promega) are added to each well, plates were incubated 10 min at RT in the dark and the light emitted in each well is quantified as Count Per Second (CPS) on a gamma-counter (TopCount) apparatus.
# Antibodies were tested for inhibition of TLR3 signaling in a luciferase based reporter gene activity (293T-TLR3-ISRE). […] Briefly, dsRNA TLR3 agonists were used to induce TLR3 signaling in the reporter assay in the presence of anti-TLR3 antibodies, and TLR3 signaling was assessed.
# In a further set of experiments, 293-huTLR3 cells were incubated with different concentrations of the anti-TLR3 mAbs for 1 to 2 hours (see FIG. 1A; mAb concentration is represented in axis in μg/ml on a logarithmic scale) followed by the addition to the medium of the TLR3 agonist polyAU at a concentration of 300 μg/ml. Luciferase expression was measured after 6 h. […]
# Similarly the kinetics of inhibition of the antibodies was evaluated in 293T-TLR3 luciferase assay. […] Luciferase expression was measured at 6 h post poly(A:U) addition. […]
# [7] = biological target: T2, TLR3; experiment: IP-10 production by donor PBMC in response to dsRNA and drug combinations; type: cell-based; details: mAb 50 μg/ml
# Procedure: IP-10 production was assessed in human donors in response to polyAU (IPH3102), believed to be a specific agonist of TLR3, or pIC, believed to be an agonist of TLR3 as well as other dsRNA receptors such as RIG-I and MDA-5. Fresh PBMC were isolated from whole blood of two independent donors. […] Cells were incubated 1 hr at 37° C. prior addition of 300 μg/ml IPH3102 or 30 μg/ml poly(I:C). Cells were incubated for 24 additional hours at 37° C. Supernatant were then harvested to quantify IP10 production by ELISA. Cells were then recovered, stained with 7-AAD and analyzed by flow cytometry (FACS) to evaluate potential toxic effects of any drugs.
Kd [1],Kd [2],binding affinity for TLR3 compared [4],"IP-10 production in response to polyAU ([7]; donor 2, IPH3102 300 μg/ml)","IP-10 production in response to polyIC ([7]; donors 1 and 2, poly(I:C) 30 μg/ml)",Molecule,TLR3-mediated CD83/CD86 expression [3],"TLR3-mediated cytokine/chemokine secretion (IP-10, IL-6) [3]",antibody binding to TLR3 chip previously incubated with polyAU [5],inhibition of TLR3 signaling [6]
0.0474 nM,0.011 nM,–,–,–,"antibody 29H3 (antibody, V domains shown, also called 29H3.7; CNCM I-4187) VH: DVQLQESGPDLVKPSQSLSLTCTVTGYSITSGYSWHWIRQFLGNKLEWMGYIHYSGITNYNPSLRSRISFTRDTSKNQFFLQLNSVTTEDTATYYCARDGYYGMDYWGQGTSVTVS VL: DIVMTQSQKFMSTSVGDRVSITCKASQNVRTSVAWYQQKPGQSPKALIYLASNRHTGVPDRFTGSGSGTDFTLTVSNIQSEDLADYFCLQHWNYPYTFGGGTKLEIK",effectively downregulated TLR3-mediated CD83/CD86 expression,"abrogated TLR3-mediated cytokine/chemokine secretion, to a similar extent as full length antibodies",–,–
–,–,significantly better,–,–,"29H3: anti-human TLR3 monoclonal antibody, IgG1; VH SEQ ID NO: 10, VL SEQ ID NO: 11; CNCM I-4187 (antibody, listed as Mus musculus, V domains shown, SIGNAL (1)..(18); SIGNAL (1)..(20), anti-human TLR3 monoclonal antibody, IgG1; CNCM I-4187) VH: MRVLILLCLFTAFPGILSDVQLQESGPDLVKPSQSLSLTCTVTGYSITSGYSWHWIRQFLGNKLEWMGYIHYSGITNYNPSLRSRISFTRDTSKNQFFLQLNSVTTEDTATYYCARDGYYGMDYWGQGTSVTVS VL: MDFQTQVFVFVLLWLSGVDGDIVMTQSQKFMSTSVGDRVSITCKASQNVRTSVAWYQQKPGQSPKALIYLASNRHTGVPDRFTGSGSGTDFTLTVSNIQSEDLADYFCLQHWNYPYTFGGGTKLEIK",effectively downregulated TLR3-mediated CD83/CD86 expression,abrogated TLR3-mediated cytokine/chemokine secretion,able to bind TLR3 even in the presence of polyAU,–
–,–,–,substantially reduce IP-10 production,substantially reduce IP-10 production,"34A3: anti-human TLR3 monoclonal antibody; VH SEQ ID NO: 34, VL SEQ ID NO: 35 (antibody, listed as Mus musculus, V domains shown, SIGNAL (1)..(19); SIGNAL (1)..(22)) VH: MEWRWIFLFLLSGTTGVHSEIQLQQSGPELVKPGASVKVSCKASGYVFTTYSIYWVKQSHGKSLEWIGYIDPYNGDTSYNQKFKGKATLTVDKSSSTAYMHLNSLTSEDSTVYYCAREGNYYGYFDYWGQGTTLTVS VL: MDFQVQIFSFLLMSASVIMSRGQIVLTQSPALMSASPGEKVTMTCSASSSVSYMFWYQQKPRSSPKPWIYLTSNLASGVPARFSGSGSGTSYSLTISSMEAEDAATYYCQQWTGNPPTFGGGTKLEIK",–,–,able to bind TLR3 even in the presence of polyAU,strongly inhibited TLR3 signaling in a dose dependent fashion; also recorded: enhanced inhibition effect at low concentrations
